Reference: PMC7409020, “Tumor-Targeting Peptides: The Functional Screen of Glioblastoma Homing Peptides to the Target Protein FABP3 (MDGI)” (Cancers, 2020)
Square brackets hold non-standard residues; d marks the D form. Ends that are not written are not given here.

B1: RI-A-CooP (peptide)
peptide: [dA][dV]G[dL]G[dS][dL]G[dC][dA]-NH2
modifications: N-terminus assumed
SMILES: CC(C)C[C@@H](NC(=O)CNC(=O)[C@H](NC(=O)[C@@H](C)N)C(C)C)C(=O)NCC(=O)N[C@H](CO)C(=O)N[C@H](CC(C)C)C(=O)NCC(=O)N[C@H](CS)C(=O)N[C@H](C)C(N)=O

Target: recombinant N-terminal His6-tagged human FABP3 (human)
Test: MST; Monolith NT.115; 20 nM NT-650-NHS-labelled FABP3, unlabelled peptides 500 µM to 0.0153 µM in two-fold dilutions; 25 °C; PBS with 0.05% Tween 20, pH 7.4; 40% MST power, 60% LED power; 1:1 fit; triplicates

Sequence of recombinant N-terminal His6-tagged human FABP3 (human) (P05413 2-133): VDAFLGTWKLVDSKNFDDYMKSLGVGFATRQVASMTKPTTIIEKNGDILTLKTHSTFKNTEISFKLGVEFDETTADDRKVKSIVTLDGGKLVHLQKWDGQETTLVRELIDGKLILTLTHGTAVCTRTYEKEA

Binder	Kd	fold lower binding affinity compared to A-CooP
ACGLSGLGVAK-NH2 [A-CooP-K]	70 nM	
KACGLSGLGVA-NH2 [KA-CooP]	630 nM	
ACGLSGLAVA-NH2 [A-[Ala^7]CooP]	133000 nM	
B1		10 fold
ACGLSGLGVA-NH2 [A-CooP]	2180 nM	
